Legend:
Assay in all cases: indirect ELISA, protein coated, serum 1:100
[1] = molecular target: 6xHis tagged C-terminal fusion protein (gp100 209-217(2M) peptide fused to PVA CP C-terminus) expres (Potato virus A (isolate B11)) (UniProt Q85197)
[2] = molecular target: 6xHis tagged N-terminal fusion protein (gp100 209-217(2M) peptide fused to PVA CP N-terminus) expres (Potato virus A (isolate B11)) (UniProt Q85197)
[3] = molecular target: 6xHis tagged wild type potato virus A coat protein (wtCP) expressed in E. coli from wtCP/pQE (Potato virus A (isolate B11)) (UniProt Q85197)

Measured: optical density at 450 nm

control mouse serum raised against PBS (antibody)
< 0.35 OD 450 nm: all assays above
